{
  "source": "paper PMC13254535",
  "about": "“The RecBCD complex interacts directly with the DNA sliding clamp in Escherichia coli” (Nucleic Acids Research, 2026)",
  "molecules": {"B1": {"name": "RecB: wild type RecB subunit of the E. coli RecBCD complex (T18 fusion, his-tagged or HaloTag according to test) (protein)", "chain": "MSDVAETLDPLRLPLQGERLIEASAGTGKTFTIAALYLRLLLGLGGSAAFPRPLTVEELLVVTFTEAATAELRGRIRSNIHELRIACLRETTDNPLYERLLEEIDDKAQAAQWLLLAERQMDEAAVFTIHGFCQRMLNLNAFESGMLFEQQLIEDESLLRYQACADFWRRHCYPLPREIAQVVFETWKGPQALLRDINRYLQGEAPVIKAPPPDDETLASRHAQIVARIDTVKQQWRDAVGELDALIESSGIDRRKFNRSNQAKWIDKISAWAEEETNSYQLPESLEKFSQRFLEDRTKAGGETPRHPLFEAIDQLLAEPLSIRDLVITRALAEIRETVAREKRRRGELGFDDMLSRLDSALRSESGEVLAAAIRTRFPVAMIDEFQDTDPQQYRIFRRIWHHQPETALLLIGDPKQAIYAFRGADIFTYMKARSEVHAHYTLDTNWRSAPGMVNSVNKLFSQTDDAFMFREIPFIPVKSAGKNQALRFVFKGETQPAMKMWLMEGESCGVGDYQSTMAQVCAAQIRDWLQAGQRGEALLMNGDDARPVRASDISVLVRSRQEAAQVRDALTLLEIPSVYLSNRDSVFETLEAQEMLWLLQAVMTPERENTLRSALATSMMGLNALDIETLNNDEHAWDVVVEEFDGYRQIWRKRGVMPMLRALMSARNIAENLLATAGGERRLTDILHISELLQEAGTQLESEHALVRWLSQHILEPDSNASSQQMRLESDKHLVQIVTIHKSKGLEYPLVWLPFITNFRVQEQAFYHDRHSFEAVLDLNAAPESVDLAEAERLAEDLRLLYVALTRSVWHCSLGVAPLVRRRGDKKGDTDVHQSALGRLLQKGEPQDAAGLRTCIEALCDDDIAWQTAQTGDNQPWQVNDVSTAELNAKTLQRLPGDNWRVTSYSGLQQRGHGIAQDLMPRLDVDAAGVASVVEEPTLTPHQFPRGASPGTFLHSLFEDLDFTQPVDPNWVREKLELGGFESQWEPVLTEWITAVLQAPLNETGVSLSQLSARNKQVEMEFYLPISEPLIASQLDTLIRQFDPLSAGCPPLEFMQVRGMLKGFIDLVFRHEGRYYLLDYKSNWLGEDSSAYTQQAMAAAMQAHRYDLQYQLYTLALHRYLRHRIADYDYEHHFGGVIYLFLRGVDKEHPQQGIYTTRPNAGLIALMDEMFAGMTLEEA", "modifications": "left off: T18 (Bordetella pertussis CyaA fragment), N-terminal, kept"}},
  "key": {"[1]": {"biological_target": "T1, β-clamp (Escherichia coli, UniProt P0A988)", "T1 sequence (P0A988 whole entry, the tested form may be a part)": "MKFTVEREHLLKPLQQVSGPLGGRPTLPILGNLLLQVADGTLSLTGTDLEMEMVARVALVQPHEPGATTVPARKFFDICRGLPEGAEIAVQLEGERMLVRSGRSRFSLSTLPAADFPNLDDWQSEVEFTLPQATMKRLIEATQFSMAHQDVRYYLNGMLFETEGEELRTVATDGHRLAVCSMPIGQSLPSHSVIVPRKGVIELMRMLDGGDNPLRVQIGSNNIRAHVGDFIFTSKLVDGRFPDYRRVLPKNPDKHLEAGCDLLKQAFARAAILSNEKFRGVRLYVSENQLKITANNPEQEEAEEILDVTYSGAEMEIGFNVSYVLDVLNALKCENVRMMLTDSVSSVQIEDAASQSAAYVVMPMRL", "from_the_text": "Protein–protein interactions between RecB and β-clamp, as well as between RecB and RecA, were examined using the bacterial adenylate cyclase-based two-hybrid (BACTH) system (Euromedex), as previously described, with optimizations noted below. This system relies on the functional reconstitution of Bordetella pertussis adenylate cyclase (CyaA) fragments T25 and T18, which are genetically fused to the proteins of interest. Upon interaction of the fusion partners, cAMP production is restored in the cyaA-deficient E. coli BTH101 strain, activating downstream reporters such as lacZ and mal operons. Co-transformants were tested using one or several of the following readouts: (i) qualitative X-gal spot assay, (ii) quantitative β-galactosidase assay, and (iii) semi-quantitative growth in M63 minimal medium with maltose.\nRecipient strains (BTH101 or derivatives) were streaked from glycerol stock onto LB agar plates containing streptomycin (100 µg/ml), isopropyl β-D-1-thiogalactopyranoside (IPTG) (0.5 mM), and 5-bromo-4-chloro-3-indolyl β-D-galactopyranoside (X-gal) (40 µg/ml) and incubated at 37°C until cya⁺ (blue) revertants became visible among the cya⁻ (white) colonies. Multiple white colonies were picked and cultured overnight in LB with streptomycin (100 µg/ml) at 37°C. These cultures were diluted 1:50 and expanded before electroporation.\nTransformed cells were immediately recovered in 1 ml SOC at 37°C for 1.5 h with shaking and plated on LB agar supplemented with appropriate antibiotics (Table 4). Plates were incubated at 30°C for up to 3 days.\nFollowing selection, 3–5 colonies from each transformation plate were pooled to inoculate 1 ml LB containing IPTG (0.5 mM) and the appropriate antibiotics. Cultures were incubated overnight at 30°C with shaking. The same overnight culture was used to seed all subsequent assays. The following day, cultures were diluted 1:100 into fresh LB (containing IPTG and antibiotics) and grown at 30°C to mid-exponential phase (OD600 around 0.5–0.6, measured by Nanodrop One, Thermo Fisher Scientific Inc.) before use in assays.\nThe X-gal spot assay was used to visualize protein−protein interactions via blue/white colorimetric readout. Mid-log cultures were serially diluted (10-fold series), and 5 µl of each dilution (including undiluted) was spotted onto LB agar containing IPTG (0.5 mM), X-gal (40 µg/ml), and selective antibiotics. To assess interaction stability under genotoxic stress, an identical plate was exposed to UV light (15 J/m^2). Plates were incubated at 30°C for 2–3 days, and images were captured with a smartphone camera.\nβ-galactosidase activity was quantified using a modified Miller assay adapted for 96-well format. Cultures at OD600 around 0.5–0.6 were measured again in a plate reader (Victor Nivo, PerkinElmer, Waltham, MA, USA) to account for instrument variability. Cells were pelleted, resuspended in PM2 buffer (70 mM Na2HPO4, 30 mM NaH2PO4, 1 mM MgSO4, 0.2 mM MnSO4, and 100 mM β-mercaptoethanol), and permeabilized with 0.01% (w/v) sodium dodecyl sulfate (SDS) and 10% (v/v) toluene for 45 min at 37°C. […] Absorbance at 405 nm was recorded, and β-galactosidase activity calculated in Miller Units using the following equation: […]\nThis assay exploits the cAMP dependence of the mal regulon, allowing only cya^+ cells with interacting fusion proteins to grow on maltose as sole carbon source. […] Cultures were incubated in triplicate at 30°C with shaking, and OD600 was measured at 24, 48, and 72 h using a plate reader. […]"}, "[2]": {"biological_target": "T1, β-clamp", "conditions": "3-AT 0.5 mM; ~29 million interaction tests", "quoted_text": "Yeast-two hybrid screening was outsourced to Hybrigenics (Paris, France). This service employs a high-complexity E. coli prey library (∼3 × 10^7 clones) and follows a robust mating-based screening protocol to identify binary protein interactions. Full-length E. coli dnaN (encoding β-clamp) was cloned into the Gal4 DNA-binding domain expression vector pGBKT7, which carries LEU2 and TRP1 selection markers (bait plasmid). The dnaN bait was screened against an E. coli complementary DNA/genomic prey library provided by Hybrigenics, totaling ~29 million interaction tests. Transformants were selected on medium lacking leucine, tryptophan, and histidine, supplemented with 0.5 mM of 3-amino-1,2,4-triazole (3-AT) to suppress background growth. Positive interactions were confirmed and sequenced by Hybrigenics."}, "[3]": {"test_system": "BTH101 ΔrecB cells", "assay": "Western blot of RecB expression level", "set-up": "species or system Escherichia coli", "conditions": "pUT18C constructs in BTH101 ΔrecB; Ponceau S normalized; relative to BTH101 wild type", "quoted_text": "Samples, including purified RecB, β-clamp (purified as previously explained for co-immunoprecipitation), input (10 µg; 0.5%), and pull-down eluates, and samples from BTH101 cultures used in survival assays, were mixed with 1 mM dithiothreitol (DTT) and 1× NuPAGE LDS sample buffer, then heated to 75°C for 10 min. […] SeeBlue Plus2 Pre-stained Protein Standard (Invitrogen) was used as a molecular weight marker.\nProteins were transferred onto 0.2-µm nitrocellulose membranes using the Trans-Blot Turbo Transfer System (Bio-Rad), and membranes were blocked in 5% (w/v) skim milk (Merck) in PBS-T (PBS with 0.1% Tween-20) for 45–60 min at room temperature. […] Following protein transfer, these membranes were also incubated in 0.1% (w/v) Ponceau S solution for 5 min to verify transfer efficiency and account for total protein loading. The stain was visualized, imaged for densitometric normalization, and subsequently removed by washing with deionized water prior to blocking. […]\nRelative RecB levels were quantified from the western blot images using Fiji (ImageJ) [58]. […] The lane profiles were plotted, and the measured signal from each lane was first normalized to the relevant Ponceau stain signal from the same lane and then to the wild-type strain."}, "[4]": {"test_system": "E. coli BTH101 ∆recB strain (IMR04)", "assay": "Ciprofloxacin survival assay (complementation of BTH101 ΔrecB)", "type": "cell-based, Escherichia coli", "conditions": "expressed from pUT18C in BTH101 ΔrecB; ciprofloxacin 2–16 ng/ml, 2 h, 37°C; CFU; 2 to 3 biological replicates", "method": "Non-transformed BTH101 and BTH101 ∆recB served as positive and negative controls, respectively. All strains were cultured at 30°C to early exponential phase (OD600 around 0.2, measured by Nanodrop One) before treatment.\n. Cultures were incubated at 37°C with shaking for 2 h. Following treatment, cells were pelleted by centrifugation and resuspended in fresh LB medium to remove residual antibiotic and halt exposure. Cultures were then serially diluted 10-fold, and 5 µl of each dilution was spotted onto LB agar plates. After overnight incubation at 30°C, CFUs were counted. […]"}, "[5]": {"test_system": "EH219 cells (GFP-β-clamp, RecB-HaloTag)", "conditions": "unchallenged; foci within 1 pixel (0.108 µm); three biological replicates", "quoted_text": "Fixed cells with endogenously tagged recB and dnaN (strain EH219) were imaged. β-clamp was N-terminally tagged with green fluorescence protein (GFP) [48]\nStrains were first grown overnight on LB-agar plates with kanamycin for selection. Then, 2 ml LB with kanamycin was inoculated with five plate colonies to create overnight cultures. The next day, overnight cultures were diluted 1:200 in fresh LB medium with kanamycin and cultured at 37°C until exponential growth (OD600 of 0.10). JF549-HTL (5 µM final concentration) was then added to the culture, and incubation continued for another 60 min for staining the RecB HaloTag, before washing five times with LB. […] Samples were fixed by resuspending and incubating them in PBS with 4% (v/w) formaldehyde for 60 min, followed by washing twice with PBS and resuspension in PBS for imaging.\nBriefly, we used a Nikon Eclipse Ti2-E inverted microscope equipped with a 60× oil objective, a CrestOptics X-Light V3 spinning disk confocal module (50:400 µm spinning disk), a Lumencor Celeste multi-line laser and two Teledyne Photometrics Kinetix sCMOS cameras. […] Three channels were used for fluorescence imaging: a transmitted light channel for cell outlines (1 ms exposure), in addition to GFP and JF549 fluorescence channels imaged with a 50:400 µm spinning disk. […] The foci numbers per cell were quantified along with their colocalization. […]"}, "[6]": {"biological_target": "T1, β-clamp", "conditions": "N-terminally his-tagged RecB as bait, pBAD30, E. coli MG1655; anti-β-clamp western blot", "quoted_text": "His-tagged recB was cloned into the pBAD30 plasmid (kind gift from Prof. Michael T. Laub, MIT and Howard Hughes Medical Institute, USA) by Dongxuan Gene Technology Co. and transformed into E. coli MG1655. An overnight culture was diluted 1:100 into 1 l of LB broth supplemented with ampicillin (100 µg/ml). When the culture reached an OD600 of 0.5, expression was induced with 0.4% (w/v) L-arabinose. After 2 h of induction at 37°C, cells were harvested by centrifugation (4000 x g, 10 min), washed with Phosphate buffered saline (PBS), and crosslinked with 1% formaldehyde for 20 min at room temperature. Crosslinking was quenched by the addition of glycine to a final concentration of 2.5 M. The cell pellets were washed three times with PBS, flash-frozen in liquid nitrogen, and stored at −80°C.\nFor lysis, cell pellets were resuspended in 10 ml of lysis buffer (50 mM Tris–HCl, pH 8.0; 500 mM NaCl; 10 mM β-mercaptoethanol; 1 mg/ml lysozyme) and subjected to sonication in 3 × 15-s pulses (Vibra cell, Sonics & Materials, Inc., Newtown, CT, USA). […]\nAfter incubation for 30 min at 4°C with gentle rotation, beads were washed four times with wash buffer (50 mM sodium phosphate, pH 8.0; 300 mM NaCl; 0.01% (v/w) Tween-20). […] Beads were removed magnetically, and eluates were analyzed by SDS–polyacrylamide gel electrophoresis (PAGE). […]"}},
  "note": "Like-named read-outs stand apart in the source and are kept apart here.",
  "data": [
    {"molecule": "B1", "values": [
      {"measurement": "interaction strength relative to RecB–RecC positive control", "setting": "[1]", "value": "comparable to the RecB–RecC positive control interaction"},
      {"measurement": "interaction with β-clamp, β-galactosidase activity", "setting": "[1]", "value": "abolished"},
      {"measurement": "interaction with β-clamp, β-galactosidase activity", "setting": "[1]; BTH101 wild-type and ΔrecB backgrounds, 24 h, relative to empty vector negative control", "value": "distinct interaction"},
      {"measurement": "interaction with β-clamp, β-galactosidase activity", "setting": "[1]; BTH101 ΔrecA", "value": "initially appeared absent"},
      {"measurement": "interaction with β-clamp, M63/maltose growth", "setting": "[1]; BTH101 ΔrecA, M63/maltose variant, longer incubation", "value": "the interaction was apparent also in the ΔrecA strain"},
      {"measurement": "yeast two-hybrid interaction with β-clamp", "setting": "[2]", "value": "possible interaction"},
      {"measurement": "RecB expression level relative to endogenous RecB", "setting": "[3]", "value": "more than eight times higher"},
      {"measurement": "survival after ciprofloxacin", "setting": "[4]", "value": "fully restores ΔrecB strain survival to the wild-type strain (BTH101) level"},
      {"measurement": "cells showing RecB–β-clamp colocalization", "setting": "[5]", "value": "around 32%"},
      {"measurement": "pull-down of β-clamp", "setting": "[6]", "value": "β-clamp was pulled down and exhibited a strong band on the membrane"}
    ]}
  ]
}
